The values below are quoted from earlier work in article PMC4845744.

The data set has as its target MutLα (Homo sapiens) (UniProt P40692).

Sequence of MutLα (Homo sapiens) (P40692 2-756, chain 1 of 2): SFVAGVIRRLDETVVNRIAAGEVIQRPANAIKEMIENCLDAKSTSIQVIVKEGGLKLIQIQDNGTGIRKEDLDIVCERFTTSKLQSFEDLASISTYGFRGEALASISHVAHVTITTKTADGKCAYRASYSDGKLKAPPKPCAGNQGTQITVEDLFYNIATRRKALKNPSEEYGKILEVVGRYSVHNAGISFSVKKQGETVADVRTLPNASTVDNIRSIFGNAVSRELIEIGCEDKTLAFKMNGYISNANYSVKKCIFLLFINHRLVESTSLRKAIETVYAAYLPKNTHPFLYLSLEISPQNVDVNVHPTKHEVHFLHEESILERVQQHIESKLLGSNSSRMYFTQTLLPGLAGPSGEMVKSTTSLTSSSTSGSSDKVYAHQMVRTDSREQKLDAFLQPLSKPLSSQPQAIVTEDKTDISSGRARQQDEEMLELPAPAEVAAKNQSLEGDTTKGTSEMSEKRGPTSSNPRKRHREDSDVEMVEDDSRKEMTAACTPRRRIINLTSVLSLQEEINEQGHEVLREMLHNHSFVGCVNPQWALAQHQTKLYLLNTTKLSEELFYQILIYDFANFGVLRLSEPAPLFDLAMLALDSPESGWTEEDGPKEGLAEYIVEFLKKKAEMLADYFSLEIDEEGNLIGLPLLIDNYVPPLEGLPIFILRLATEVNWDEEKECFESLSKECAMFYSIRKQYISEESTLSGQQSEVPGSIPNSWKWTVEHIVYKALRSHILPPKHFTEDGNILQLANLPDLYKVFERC
Sequence of MutLα (Homo sapiens) (P54278 whole entry, chain 2 of 2, further chain): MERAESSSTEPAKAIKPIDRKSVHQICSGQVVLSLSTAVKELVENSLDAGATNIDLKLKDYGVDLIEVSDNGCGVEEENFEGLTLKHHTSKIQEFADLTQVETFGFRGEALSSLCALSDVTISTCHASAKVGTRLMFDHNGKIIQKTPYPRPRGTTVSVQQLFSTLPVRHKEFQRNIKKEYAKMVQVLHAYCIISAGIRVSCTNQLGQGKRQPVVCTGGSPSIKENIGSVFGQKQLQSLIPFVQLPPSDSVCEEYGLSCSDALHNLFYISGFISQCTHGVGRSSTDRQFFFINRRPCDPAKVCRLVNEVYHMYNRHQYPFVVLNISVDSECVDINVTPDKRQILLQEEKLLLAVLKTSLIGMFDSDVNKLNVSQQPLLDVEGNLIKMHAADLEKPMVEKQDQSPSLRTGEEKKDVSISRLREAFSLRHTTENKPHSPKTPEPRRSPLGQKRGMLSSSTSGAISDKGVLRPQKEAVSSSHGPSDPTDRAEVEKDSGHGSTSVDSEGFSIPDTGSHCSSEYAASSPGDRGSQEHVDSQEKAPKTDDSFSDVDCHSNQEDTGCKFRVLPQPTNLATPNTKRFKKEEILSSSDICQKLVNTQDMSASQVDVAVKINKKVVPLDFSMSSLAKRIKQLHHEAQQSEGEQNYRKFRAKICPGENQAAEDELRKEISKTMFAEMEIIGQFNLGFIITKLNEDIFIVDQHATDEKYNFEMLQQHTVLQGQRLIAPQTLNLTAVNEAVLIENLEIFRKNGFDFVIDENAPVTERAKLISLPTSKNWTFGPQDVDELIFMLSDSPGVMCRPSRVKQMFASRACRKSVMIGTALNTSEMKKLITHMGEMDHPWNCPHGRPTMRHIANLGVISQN

As for MutSβ (from UniProt P43246), the Kd is 250 nM.

As a reminder, the Kd is the concentration at which binding is half-saturated.
